Experimental data: patent publication US20200078470A1

Biological target: M6P receptor (M6PR)
Test: SPR (BIACORE T200), M6PR amine-coupled on CM5 chip, conjugate 200 nM to 12.5 nM, 1:1 Langmuir model

M6PR Binding Affinity (relative to imiglucerase = 100%): 22%
Substance: imiglucerase long-acting conjugate (from UniProt P04062 40-536; P01861 107-327)
